Experiment: yeast display, Sf9 membrane polyspecificity reagent, FACS + sequencing; frameworks hold sequencing errors
Procedure, shortened: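 Sorting gates, low and high (top ~1%), were placed on anti-HA fluorescence to track expression and on streptavidin fluorescence to track reagent binding. A clone's polyreactivity label is taken from the gate it came out of. The reagent was 10% biotinylated, detergent-solubilized Sf9 membrane, applied for 1 hour at 4 °C to galactose-induced yeast display cells.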
With “QVQIVESGGGLVQAGGTLRISCAASGFTLYYYAMGWSRQAPGKERELVAAITSSGTSTYYADSVKGRFTISRDNAKNTVYLQMNSLKPEDTAVYYCAAVSKIYHYRAVRLDDYWGQGTQVSVSS” the “polyreactivity (PSR sort gate)” value was “low polyreactivity”.
With “QVQIVESGGGLVQAGRSLRLSCAASGFIFFPYVMGWYRPAPVKERELVARITSGGGSTYYADSVKGRFSISRDNAKNTVYLEMYSLKPEDTAVYYCAARFRFPPSYDYWGQCTQVTVSS” the “polyreactivity (PSR sort gate)” value was “high polyreactivity”.
In the case of “QVQIVESGGGLVQAGRSLRLSCAASGIIFRRYAMGWYRQAPGKETELVAAISSRGGSTYYADSVKGRFTISRDNAKNTVYLQMNSLKPEDTAVYYCAKGFSGTGGSGDFGYWGQGTQVTVSS”, the “polyreactivity (PSR sort gate)” value is reported as “high polyreactivity”.
For “QVQIVESGGGLVQAGRSLRLSCAASGRTFYRNAMGWYRQAPGKERELVAAITWRTGNTYFADSVKGRFTISRDNAKNTVYLQMNSLKQEDTAVYYCNRVPYYGHPFRVSGDYWGQCTQVTVSS”, the “polyreactivity (PSR sort gate)” value was “low polyreactivity”.
With “QVQIVESGGGLVQAGRSLSLSCAASGYTFLPNVMGWYRQAPGKERELVAAIYSRGGRTYYADSVKGRFTISRDNAKNTVYLQMNSLKPEDTAVYYCAAYTRYTTGSAGIYRDDYWGQGTQVTVSS” the “polyreactivity (PSR sort gate)” value was “high polyreactivity”.
In the case of “QVQIVESGGGLVQAGVSLRLSCAASGRTSDGYAMGWYRQAPGKESELVAGITEGGGDTYYADSVKGRFTISRDNAKNTVYLQMNSLKPEDTAVYYCNAVEGSRLPYDYWGQGTQVTVSS”, the “polyreactivity (PSR sort gate)” value is reported as “low polyreactivity”.
For “QVQIVESGGGLVQPGCSLRLSCAASGRIFYVYAMGWYRQAPGTEWELVASITNGGRTNYADSVKGRFTISRDNAKNTFYLQMNSLKPEDTAVYYCATAASNYLDYVGKYRYDYWVQGTQVTVSS”, the “polyreactivity (PSR sort gate)” value was “low polyreactivity”.
In the case of “QVQIVESGGGLVQSGGSLRLSCAASGIIFSSNAMGWYRQAPGKERELVAAISRRGGSTYYADSVKGRFTISRDKAKNTVYLQMNSLKPEDTAVYYFIALLYNVAGYDYWGQGTQVTVSS”, the “polyreactivity (PSR sort gate)” value is reported as “high polyreactivity”.
In the case of “QVQIVESGGGVVQAGGSLRLSCAASGLIFPAYTMGWYRQAPGKERELVAAISRSGGSTYYADSVKGRFTISRDNAKNTVSLQMNSLNPEDTAVYYCAAQGYFVDRAGRYYRGDYWGQGTQVTVSS”, the “polyreactivity (PSR sort gate)” value is reported as “high polyreactivity”.
In the case of “QVQIVESVGGLVQAGGSLRLSCAASGRTFPYYAKGRYRQAPGKEREMVATISTADSTYYADSVKGRFTISRDNAKNTVYLQMNRLITEATEVYYCAKDRYTYWSVHAFRRLDYWGQGTQLTVSS”, the “polyreactivity (PSR sort gate)” value is reported as “low polyreactivity”.
In the case of “QVQLADSGGGLVQAGGSLRLICAASGSIIRNKAMGWYRQAPGKERELVAAITSTGTGTYYADSVKGRFTISRDYAKNTVYLQMNRVKPEDPAVYYCAVDDEFEFGYWGQGTQVTVSS”, the “polyreactivity (PSR sort gate)” value is reported as “low polyreactivity”.
In the case of “QVQLAESGRGLVQAGGSLRLSCADSGIIYYFYAMGWYRQAPGKETEFVAAISGTGGRTYYADSVKGRFTISRDNAKNTVYLQMNSLKPEDTAVYYCNADDTPVPSIRFDYWGQGTQVTVSS”, the “polyreactivity (PSR sort gate)” value is reported as “low polyreactivity”.
For “QVQLAETGGGLVQAGGSLRLSCAASGSTFSVYAMGWYRQSPGKERELVATIPRGGSTYADSVKGRLTISRDNAKNTVYLQMNSLKPEDTAVYYCAADAYVSSQPMDYWGQGTQVTVSS”, the “polyreactivity (PSR sort gate)” value was “high polyreactivity”.
In the case of “QVQLEDSGGGLVQAGGSLRLSCAASGFTFYSNAMGWYRQAPGKERELVAAITRGGGSTYYADSVKGRFTISRDNAKNTVYLQMNSLKPEDTAVYYCAAEMFAPYRSTYDYWGQGTQVTVSS”, the “polyreactivity (PSR sort gate)” value is reported as “low polyreactivity”.
In the case of “QVQLEEAGGGLVQAGGSLSLSCAASGSILKVYAMGWSRQAPGQERELVAGNTRAGGSTNDADSVKGRFTISRDYAKNTVLLQMNSLKPEDTPVYYCAGRLKCYRRRDYWGQGTQVSVSS”, the “polyreactivity (PSR sort gate)” value is reported as “high polyreactivity”.
With “QVQLEESAGGLVQAGGSLRLSCAASGRTFRRYAMGWYRPAPGKERELVAVISSGGRTNYADSVKGRFTISRDNAKNTVYLQLNSLKPEDTAVYYCNAGPLYSGVYSGYFWGQGTQVTVSS” the “polyreactivity (PSR sort gate)” value was “high polyreactivity”.
For “QVQLEESCGGLVQAGGSLRLSCAASGSTFTIYAMGWYRQAPGKERELVAVISSSGGSTYYADSVKGRFTISRDNAKNTVYLQMNSLKPEDTAVYYCAADTRYFGGYLTLYYWGQGTQVTVSS”, the “polyreactivity (PSR sort gate)” value was “low polyreactivity”.
In the case of “QVQLEESGAGLVQAGCSLRLSCAASGSTLFNNAMGWYRQAPGKERELVAAITFSGASTYYADSVKGRFTISRDNAKNTVYLQMNSLKPEDTAVYYCGADPSFNYIPVYYFDYDYWGQATQVTVSS”, the “polyreactivity (PSR sort gate)” value is reported as “low polyreactivity”.
With “QVQLEESGAGLVQAGGSLRLCCAASGNTFSSNAMGLYTQAPGKEMELVAGITKSGGRTYYADSVKGRFTISRDNAQYTVYLHMNSLKPEDSAVFYCNRRAGPFSIQYYYWGQVTQVTVSS” the “polyreactivity (PSR sort gate)” value was “high polyreactivity”.
In the case of “QVQLEESGAGLVQAGGSLRLSCAASGITFYYNDMGWYRQAPGKEREMVASISGDGGSTYYADSVKGRFTISRDNAKNTVYLQMNSLKPEDTAVFYCAASAGYYEVLYDYWGQGTQVTVSS”, the “polyreactivity (PSR sort gate)” value is reported as “low polyreactivity”.
In the case of “QVQLEESGGALVQAGGSLRISCAASGSTFYYNAMGWYRQAPGKERELVAVITLNGGRTSYADSVKGRFTISRDNAKNTVYLQMNSLKPEDSAVYYCAADRYRGYGYWGQGTQVTVSS”, the “polyreactivity (PSR sort gate)” value is reported as “low polyreactivity”.
For “QVQLEESGGGIVQAGGSLRLSCAASGRTFVTNAMGWYRKAPGKERELVATINWSGGRTHYADSVKGRFTISRDNAKNTVYLQMNSLKPEDTAVYYCAKASSRRYWTIRDGDYWGQGTQVSVSS”, the “polyreactivity (PSR sort gate)” value was “low polyreactivity”.
With “QVQLEESGGGIVQAGGSLRLSCDASGRIFVQYAIGCYRQEPGKEMELVAAISGSGGRTYYADSVKGSFTISRDTAKNTVYLQMNSLKPEDTAVYYCAARYTTGLSFWKPYYYWGQGTQVTVSS” the “polyreactivity (PSR sort gate)” value was “high polyreactivity”.
In the case of “QVQLEESGGGLDQAGGSLRLSCAASAIIFALYARGWYSQARGKHRELVATITYSGGSTNYADSLKGRYTISRDNAKNPVYLLMHSLKPEDTAVYYCAAASVPWGGYYSGQGTQVTVSS”, the “polyreactivity (PSR sort gate)” value is reported as “low polyreactivity”.
In the case of “QVQLEESGGGLLQAGGSHSLSCAASGSTFYKYGMVWYRQAPGKEREFVAAISGSGDSTYYADSVKGRFTISRDNAKNTVYLHMNRLKPEDTAVYYCNAGPWWYLHEYDYWGQGTQVNVSS”, the “polyreactivity (PSR sort gate)” value is reported as “low polyreactivity”.
For “QVQLEESGGGLVHAGGILRLSCAASGYTFYYNAMGWYRQAPGKERELVAAISRSRDTTYYADSVKGRFTISRDNAKYTVYLQMYSLKPEDTEVYYCNAVVQVLADFQKYDYWGQGSQVTVSS”, the “polyreactivity (PSR sort gate)” value was “low polyreactivity”.
In the case of “QVQLEESGGGLVHAGGSLRLSSAASGYTFKYYALACYRQAPGKERELVAAISARGGSTYYADSVKGRFTISRDNAKNTVYLQMNSVKPEDTAVYFCAARSGYGPYRMDYWGQGTQVTVSS”, the “polyreactivity (PSR sort gate)” value is reported as “high polyreactivity”.
In the case of “QVQLEESGGGLVQAGCSLRLTCAASGSTFYSYPMGWSRQAPGKERELVAAITVSGTSTYYADSVKGRFTISRDNAKNTVYLQMYSVKPEDTAVYYCAADRRTDGHDYWGQGTQVTVSS”, the “polyreactivity (PSR sort gate)” value is reported as “high polyreactivity”.
In the case of “QVQLEESGGGLVQAGGRIRLSCAASGRIFHGYAMGWYRQAPGKERELVAAISWRGDSTYYADSVKGRFTNSRDNAKNTVYLQMNSLKPEDTAVYYCNDLGENYQFNYWGLGTQVTVSS”, the “polyreactivity (PSR sort gate)” value is reported as “low polyreactivity”.
With “QVQLEESGGGLVQAGGRLRISCAASGRTFLCYAMGWSRQAPGKERELLAAISKSGGSTYYADSVKGRFTISRDNAKNTVYLQMNSLKPQDTAVYYCAVEVDVYTFSEFYYWGQGTQVTVSS” the “polyreactivity (PSR sort gate)” value was “high polyreactivity”.

Reference: the nanobody polyreactivity screen of Harvey et al. (2022)
